Columns and labels:
[1] = test system: GLP-1
[2] = test system: GLP-1(7-37)-GG-(S)-2,6-diamino-1-(thiazolidin-3-yl)hexan-1-one amide
[3] = test system: GLP-1(7-37)-GG-(S)-2,6-diamino-1-(thiazolidin-2-cyano-3-yl)hexan-1-one amide
GLP-1(7-37)-GG-(S)-2,6-diamino-1-(thiazolidin-2-cyano-3-yl)hexan-1-one amide, sequence (chain, as listed by the source): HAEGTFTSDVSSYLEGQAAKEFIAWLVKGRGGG

GLP-1, sequence (chain, as listed by the source): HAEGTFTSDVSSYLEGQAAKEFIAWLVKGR

Question: Which “percentage of hydrolysis catalyzed by DPP-IV (mass spectrometry)” value [1] does the source give for Recombinant DPP-IV here?
Answer: the DPP-IV catalyzed cleavage afforded the GLP-1 (9-36) product in 17% yield

Question: What about the “hydrolysis catalyzed by DPP-IV (mass spectrometry)” value [2] of the same substance?
Answer: the expected product ions were not observed, indicating that these two compounds are DPP-IV resistant under the test conditions

Question: What about the “hydrolysis catalyzed by DPP-IV (mass spectrometry)” value [3] of the same substance?
Answer: the expected product ions were not observed, indicating that these two compounds are DPP-IV resistant under the test conditions
